Assay results from article PMC11417369, “DNA sequence and chromatin differentiate sequence-specific transcription factor binding in the human malaria parasite Plasmodium falciparum”.

T1: PF3D7_0420300 D1 (Plasmodium falciparum, UniProt Q8I1N6 1956-2015)
T1 sequence: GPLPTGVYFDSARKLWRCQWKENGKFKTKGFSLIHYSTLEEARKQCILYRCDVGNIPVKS


Biological target: T1, PF3D7_0420300 D1
Assay: gcPBM; about 25 ug protein; PBS, 1% milk, 0.2 mg/ml BSA, salmon testes DNA, 0.03% Triton X-100
Conditions: tags: N-terminal GST (pGEX-4T-1), kept; label: surface-attached array probe

| Binder | binding signal |
| --- | --- |
| CACACA_site8200 (dsDNA) DNA 1: AAACTTAATATCGGTACACACACAAGATAAGAATTA DNA 2: TAATTCTTATCTTGTGTGTGTACCGATATTAAGTTT | 9.96 ln median PBM intensity, better of two orientations |
| CACACA_site8742 (dsDNA) DNA 1: TTATGTTCTTTAAAACCACACACCCCCCAACCCCCC DNA 2: GGGGGGTTGGGGGGTGTGTGGTTTTAAAGAACATAA | 10.4 ln median PBM intensity, better of two orientations |
| CACACA_site6531 (dsDNA) DNA 1: AATAAATTTAGACACACACACACATATAAATAAATA DNA 2: TATTTATTTATATGTGTGTGTGTGTCTAAATTTATT | 10.2 ln median PBM intensity, better of two orientations |
| CACACA_site9118 (dsDNA) DNA 1: AAAAAAAACGCACATACACACACACCCATATATATA DNA 2: TATATATATGGGTGTGTGTGTATGTGCGTTTTTTTT | 10 ln median PBM intensity, better of two orientations |
| CACACA_site5271 (dsDNA) DNA 1: TATAAATACAGATACACACACACACCGATATATATA DNA 2: TATATATATCGGTGTGTGTGTGTATCTGTATTTATA | 10.2 ln median PBM intensity, better of two orientations |
| CACACA_site2053 (dsDNA) DNA 1: AAATTTATTATGAACATACACACAAAAAAAAAAAGT DNA 2: ACTTTTTTTTTTTGTGTGTATGTTCATAATAAATTT | 9.98 ln median PBM intensity, better of two orientations |
| CACACA_site2752 (dsDNA) DNA 1: CAAACATATTAATGTACACACACCCACCCACAAACA DNA 2: TGTTTGTGGGTGGGTGTGTGTACATTAATATGTTTG | 10.4 ln median PBM intensity, better of two orientations |
| CACACA_site7364 (dsDNA) DNA 1: AAAAAAAAAAAAAACACACACACACGCATACACATA DNA 2: TATGTGTATGCGTGTGTGTGTGTTTTTTTTTTTTTT | 10.2 ln median PBM intensity, better of two orientations |
| CACACA_site6794 (dsDNA) DNA 1: AAAAAAAAAAAAAACACACACACACGCATACAAAAT DNA 2: ATTTTGTATGCGTGTGTGTGTGTTTTTTTTTTTTTT | 10.1 ln median PBM intensity, better of two orientations |
| CACACA_site5102 (dsDNA) DNA 1: GAGAAAAATAAATACACACACATAAATAAATACATA DNA 2: TATGTATTTATTTATGTGTGTGTATTTATTTTTCTC | 10.2 ln median PBM intensity, better of two orientations |
| CACACA_site1736 (dsDNA) DNA 1: ATAGTATACAGACACACACACACACCCATATATATA DNA 2: TATATATATGGGTGTGTGTGTGTGTCTGTATACTAT | 10.4 ln median PBM intensity, better of two orientations |
| CACACA_site6496 (dsDNA) DNA 1: TATTAAACTTGACACACACACACACGCATATATAAA DNA 2: TTTATATATGCGTGTGTGTGTGTGTCAAGTTTAATA | 10.3 ln median PBM intensity, better of two orientations |
| CACACA_site5111 (dsDNA) DNA 1: TATTTATAAATTTACACACACACATGGGAACATAAA DNA 2: TTTATGTTCCCATGTGTGTGTGTAAATTTATAAATA | 10.1 ln median PBM intensity, better of two orientations |
| CACACA_site748 (dsDNA) DNA 1: ATTTTTTTTTTTTCCTTACACACATATTTCATTTTA DNA 2: TAAAATGAAATATGTGTGTAAGGAAAAAAAAAAAAT | 9.99 ln median PBM intensity, better of two orientations |
| CACACA_site9187 (dsDNA) DNA 1: AAAAAAAAAATACATACACACACACCCACCCATATA DNA 2: TATATGGGTGGGTGTGTGTGTATGTATTTTTTTTTT | 10.4 ln median PBM intensity, better of two orientations |
| CACACA_site7142 (dsDNA) DNA 1: TAGTAAAAGATATACACACACCAAAAAATATAATTA DNA 2: TAATTATATTTTTTGGTGTGTGTATATCTTTTACTA | 10 ln median PBM intensity, better of two orientations |
| CACACA_site1104 (dsDNA) DNA 1: AAAAAAAAAAAAAACACACACACAAAAAAAAATATA DNA 2: TATATTTTTTTTTGTGTGTGTGTTTTTTTTTTTTTT | 10.1 ln median PBM intensity, better of two orientations |
| CACACA_site7867 (dsDNA) DNA 1: AAGGATATAACATACACACACACACGGATATAAATA DNA 2: TATTTATATCCGTGTGTGTGTGTATGTTATATCCTT | 10.4 ln median PBM intensity, better of two orientations |
| CACACA_site8978 (dsDNA) DNA 1: TGAGTCTTTTACATTGCACACACATTTCTTTCCTTT DNA 2: AAAGGAAAGAAATGTGTGTGCAATGTAAAAGACTCA | 9.97 ln median PBM intensity, better of two orientations |
| CACACA_site1251 (dsDNA) DNA 1: TACAATTTAAAACACACACACAATAATACATATATA DNA 2: TATATATGTATTATTGTGTGTGTGTTTTAAATTGTA | 10.1 ln median PBM intensity, better of two orientations |
| CACACA_site7188 (dsDNA) DNA 1: GTGCATAAATCATACACACACACATATATAAATATA DNA 2: TATATTTATATATGTGTGTGTGTATGATTTATGCAC | 9.95 ln median PBM intensity, better of two orientations |
| CACACA_site5427 (dsDNA) DNA 1: TAATTATGCGGACACACACACACACCCAACTAAAAA DNA 2: TTTTTAGTTGGGTGTGTGTGTGTGTCCGCATAATTA | 10.1 ln median PBM intensity, better of two orientations |

| Binder | binding signal |
| --- | --- |
| CACACA_site2569 (dsDNA) DNA 1: TAATTATGCAGACACACACACACACCCAACTAAAAA DNA 2: TTTTTAGTTGGGTGTGTGTGTGTGTCTGCATAATTA | 10.1 ln median PBM intensity, better of two orientations |
| CACACA_site466 (dsDNA) DNA 1: CAAAAAAAATAAAACACACACACAAAAAAATAAAAA DNA 2: TTTTTATTTTTTTGTGTGTGTGTTTTATTTTTTTTG | 10.2 ln median PBM intensity, better of two orientations |
| CACACA_site399 (dsDNA) DNA 1: AACAACCAAAGGCACACACACAAAAAAAAAAATATA DNA 2: TATATTTTTTTTTTTGTGTGTGTGCCTTTGGTTGTT | 10 ln median PBM intensity, better of two orientations |
| CACACA_site370 (dsDNA) DNA 1: ATCAAGCACCAACACACACACACACCCCCACCCACA DNA 2: TGTGGGTGGGGGTGTGTGTGTGTGTTGGTGCTTGAT | 10.8 ln median PBM intensity, better of two orientations |
| CACACA_site5776 (dsDNA) DNA 1: ATTATAAATACACGCACACACACTTATATATATATA DNA 2: TATATATATATAAGTGTGTGTGCGTGTATTTATAAT | 9.96 ln median PBM intensity, better of two orientations |
| CACACA_site6364 (dsDNA) DNA 1: ATAATCCTTAGACACACACACACACGAATAAATAAA DNA 2: TTTATTTATTCGTGTGTGTGTGTGTCTAAGGATTAT | 10.3 ln median PBM intensity, better of two orientations |
| CACACA_site2906 (dsDNA) DNA 1: AATATAAATAAACACACACACATATATATATATATT DNA 2: AATATATATATATATGTGTGTGTGTTTATTTATATT | 10.1 ln median PBM intensity, better of two orientations |
| CACACA_site7644 (dsDNA) DNA 1: AAAAAATACAGACACACACACACACGCATATAAATA DNA 2: TATTTATATGCGTGTGTGTGTGTGTCTGTATTTTTT | 10.2 ln median PBM intensity, better of two orientations |
| CACACA_site8057 (dsDNA) DNA 1: ATTAAACATACATATACACACACACCCACCCACCCA DNA 2: TGGGTGGGTGGGTGTGTGTGTATATGTATGTTTAAT | 10.9 ln median PBM intensity, better of two orientations |
| CACACA_site6342 (dsDNA) DNA 1: AAAAAAAACAGACACACACACAAATATTTATATATC DNA 2: GATATATAAATATTTGTGTGTGTGTCTGTTTTTTTT | 10.2 ln median PBM intensity, better of two orientations |
| CACACA_site8724 (dsDNA) DNA 1: AACACATACATATATACACACACAAAATAATAAAAT DNA 2: ATTTTATTATTTTGTGTGTGTATATATGTATGTGTT | 10.1 ln median PBM intensity, better of two orientations |
| CACACA_site4117 (dsDNA) DNA 1: TATATATATATAGACACACACACACCCATATATATA DNA 2: TATATATATGGGTGTGTGTGTGTCTATATATATATA | 10 ln median PBM intensity, better of two orientations |
| CACACA_site8411 (dsDNA) DNA 1: AAAAAAAAAAAACACACACACACACCGACAAAATAT DNA 2: ATATTTTGTCGGTGTGTGTGTGTGTTTTTTTTTTTT | 10.2 ln median PBM intensity, better of two orientations |
| CACACA_site4903 (dsDNA) DNA 1: AAAAACCATTGGCACACACACATAATATATAATATA DNA 2: TATATTATATATTATGTGTGTGTGCCAATGGTTTTT | 10 ln median PBM intensity, better of two orientations |
| CACACA_site7431 (dsDNA) DNA 1: CTTGTCATTTTGCACACACACATGTATAGGTTATTA DNA 2: TAATAACCTATACATGTGTGTGTGCAAAATGACAAG | 10.1 ln median PBM intensity, better of two orientations |
| CACACA_site6309 (dsDNA) DNA 1: ACATCAAGCAGACACACACACACACGCACACGCACA DNA 2: TGTGCGTGTGCGTGTGTGTGTGTGTCTGCTTGATGT | 10.4 ln median PBM intensity, better of two orientations |
| CACACA_site494 (dsDNA) DNA 1: CATACATAGAAACACACACACACACCCACCCACAAA DNA 2: TTTGTGGGTGGGTGTGTGTGTGTGTTTCTATGTATG | 10.4 ln median PBM intensity, better of two orientations |
| CACACA_site8938 (dsDNA) DNA 1: TAATTAAATACATTAACACACACACTAATATATACA DNA 2: TGTATATATTAGTGTGTGTGTTAATGTATTTAATTA | 10 ln median PBM intensity, better of two orientations |
| CACACA_site757 (dsDNA) DNA 1: AAACTTGACAGACACACACACACATATATAAAAAAA DNA 2: TTTTTTTATATATGTGTGTGTGTGTCTGTCAAGTTT | 10.1 ln median PBM intensity, better of two orientations |
| CACACA_site710 (dsDNA) DNA 1: AAAAAAAGATTATACACACACATATATAAACCTACA DNA 2: TGTAGGTTTATATATGTGTGTGTATAATCTTTTTTT | 10.1 ln median PBM intensity, better of two orientations |
| CACACA_site8723 (dsDNA) DNA 1: TATTCCCCCCAACACACACACACACCGACATACCAC DNA 2: GTGGTATGTCGGTGTGTGTGTGTGTTGGGGGGAATA | 10.8 ln median PBM intensity, better of two orientations |
| CACACA_site7579 (dsDNA) DNA 1: TATACACATATATACACACACATATATAAATAAATA DNA 2: TATTTATTTATATATGTGTGTGTATATATGTGTATA | 9.98 ln median PBM intensity, better of two orientations |
